Consider two molecules from PMC11885566 (Communications Biology, 2025).

Assay [1] concerns the target SARS-CoV-2 NTD protein with D7-tag (SARS-CoV-2 (NC_045512.2, Wuhan-Hu-1), UniProt P0DTC2). The assay is described as follows: ELISA.
Assay [2] has as its target SARS-CoV-2 S2 subdomain protein with D7-tag (SARS-CoV-2 (NC_045512.2, Wuhan-Hu-1), UniProt P0DTC2). As to the kind of experiment: ELISA.
In assay [3] the target is SARS-CoV-2 wild-type RBD protein (BLI) (SARS-CoV-2, UniProt P0DTC2). The assay is described as follows: BLI.
Assay [4] deals with SARS-CoV RBD protein (BLI) (SARS-CoV (isolate of the bought protein …, UniProt P59594)). The assay is described as follows: BLI.
The target of assay [5] is T1, SARS-CoV-2 S ectodomain with D7-tag (SARS-CoV-2, UniProt P0DTC2). The assay is described as follows: cell-based or functional assay.
Assay [6] deals with T1, SARS-CoV-2 S ectodomain with D7-tag. The assay is described as follows: ELISA.
Assay [7] has as its target SARS-CoV-2 RBD protein with D7-tag (SARS-CoV-2, UniProt P0DTC2). As to the kind of experiment: ELISA.
In assay [8] the target is SARS-CoV-2 S1 subdomain protein with D7-tag (SARS-CoV-2 (NC_045512.2, Wuhan-Hu-1), UniProt P0DTC2). As to the kind of experiment: ELISA.

Residue numbers refer to the chain shown, from its start.

B1: CYFN1006-1 (antibody, V domains shown)
VH: QMQLVQSGAEVKKPGESLKISCKGSGYTFSYYWIGWVRQMPGKGLEWMGIIYPGDSDTRYSPSFQGQVTISADKSISTAYLHWSSLKASDTAMYYCARQGDLGDWILLGYWGQGTLVTVSS
VL: QSALTQPRSVSGSLGQSVTISCTGISSDVGGDNYVSWYQQHPGKAPKLMIYDVSKRPSGVPDRFSGSKSGNTASLTISGLQADDEADYYCCSYALSRVVFGGGTMLTVL
With B1, the binding result in assay [1] and in assay [2] was “no binding” each time. Moreover, the Kd in assay [3] is less than 0.001 nM; in assay [4], 32.4 nM. Besides, the “neutralisation of SARS-CoV-2, IC50” value in assay [5] is less than 5 ng/mL.

B2: CYFN1006-2 (antibody, V domains shown)
VH: B1 VH
VL: B1 VL with R8P, V10A, L14P, I25A, D32Y, D52E, S54N
With B2, the binding result was “no binding” in assay [1]; “no binding” in assay [2]; “binds” in assay [6]; “binds” in assay [7]; “binds” in assay [8]; “binds” in assay [3].
